Experimental data as given in publication PMC12407318.

Assay: sheep red blood cell hemolysis, OD542
Settings: glycan lost; control: WT Anxa2

Protein	other: MBL-MASP complement activation
Annexin A2 (Anxa2): S22A (protein) parent chain: MSTVHEILCKLSLEGDHSTPPSAYGSVKPYTNFDAERDALNIETAVKTKGVDEVTIVNILTNRSNVQRQDIAFAYQRRTKKELPSALKSALSGHLETVILGLLKTPAQYDASELKASMKGLGTDEDSLIEIICSRTNQELQEINRVYKEMYKTDLEKDIISDTSGDFRKLMVALAKGRRAEDGSVIDYELIDQDARELYDAGVKRKGTDVPKWISIMTERSVCHLQKVFERYKSYSPYDMLESIKKEVKGDLENAFLNLVQCIQNKPLYFADRLYDSMKGKGTRDKVLIRIMVSRSEVDMLKIRSEFKRKYGKSLYYYIQQDTKGDYQKALLYLCGGDD	decreases
Annexin A2 (Anxa2): S26A (protein) parent chain: MSTVHEILCKLSLEGDHSTPPSAYGSVKPYTNFDAERDALNIETAVKTKGVDEVTIVNILTNRSNVQRQDIAFAYQRRTKKELPSALKSALSGHLETVILGLLKTPAQYDASELKASMKGLGTDEDSLIEIICSRTNQELQEINRVYKEMYKTDLEKDIISDTSGDFRKLMVALAKGRRAEDGSVIDYELIDQDARELYDAGVKRKGTDVPKWISIMTERSVCHLQKVFERYKSYSPYDMLESIKKEVKGDLENAFLNLVQCIQNKPLYFADRLYDSMKGKGTRDKVLIRIMVSRSEVDMLKIRSEFKRKYGKSLYYYIQQDTKGDYQKALLYLCGGDD	decreases
